Source: publication PMC5123050
pKd: −log10 of the molar value.

Molecular target: 32P-labelled ORF145/RIP (protein kinase A recognition sequence and C-terminal His-tag) (Acidianus two-tailed virus (ATV))
Experiment: native gel or EMSA; 32P-ORF145/RIP (1 nM) with 1–100 nM Sso RNAP in 10 mM MOPS pH 6.5, 10 mM MgCl2, 260 mM NaCl, 5 mM DTT, 10% glycerol, BSA, 2 mM ATP, 65 °C 5 min; 6% native PAGE; tight binding equation; complexes also resistant to 2 M NaCl

pKd: 7.90
Substance: Sulfolobus solfataricus (Sso) RNA polymerase, 13 subunits (from UniProt Q980R2 1-880) (complex)
